# Source: patent US20070265206A1 (PALATIN TECHNOLOGIES, published 2007)
# Bridge positions count the residues as written; N and C are the ends.
# T1: human natriuretic peptide receptor A (NPRA) (human, UniProt P16066 33-1061)
# T1 construct: whole, on cells; In the cGMP assay it stood on whole HEK-hNPRA cells; also called hNPRA; hNPR-A
# T1 sequence (looked up): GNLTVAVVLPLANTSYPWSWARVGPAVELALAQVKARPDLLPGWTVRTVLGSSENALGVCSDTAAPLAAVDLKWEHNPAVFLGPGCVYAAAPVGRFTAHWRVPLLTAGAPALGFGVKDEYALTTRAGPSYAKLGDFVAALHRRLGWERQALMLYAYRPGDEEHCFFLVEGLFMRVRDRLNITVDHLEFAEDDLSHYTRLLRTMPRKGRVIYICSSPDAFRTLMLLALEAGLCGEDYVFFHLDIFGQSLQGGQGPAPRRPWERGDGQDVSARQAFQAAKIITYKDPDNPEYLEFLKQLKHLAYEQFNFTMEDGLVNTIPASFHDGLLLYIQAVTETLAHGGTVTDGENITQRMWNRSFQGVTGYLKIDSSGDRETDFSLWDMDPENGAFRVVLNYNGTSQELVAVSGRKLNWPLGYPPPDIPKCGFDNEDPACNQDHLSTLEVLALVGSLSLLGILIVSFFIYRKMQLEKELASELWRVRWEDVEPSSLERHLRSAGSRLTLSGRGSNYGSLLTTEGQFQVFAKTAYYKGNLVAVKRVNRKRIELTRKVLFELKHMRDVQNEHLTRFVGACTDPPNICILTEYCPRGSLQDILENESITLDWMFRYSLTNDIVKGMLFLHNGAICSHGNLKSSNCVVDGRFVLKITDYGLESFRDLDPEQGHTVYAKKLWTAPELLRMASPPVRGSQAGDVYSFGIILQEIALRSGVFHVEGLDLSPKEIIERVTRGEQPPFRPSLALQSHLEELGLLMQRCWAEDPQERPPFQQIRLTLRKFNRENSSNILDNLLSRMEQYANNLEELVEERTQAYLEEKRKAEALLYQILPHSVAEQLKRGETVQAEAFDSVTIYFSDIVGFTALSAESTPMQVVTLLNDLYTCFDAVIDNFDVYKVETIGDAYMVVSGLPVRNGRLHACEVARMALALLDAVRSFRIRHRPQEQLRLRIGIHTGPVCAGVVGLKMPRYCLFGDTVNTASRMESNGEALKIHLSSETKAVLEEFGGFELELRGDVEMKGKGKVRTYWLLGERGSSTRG
# B1: mini-ANP, H-Met-cyclo(Cys-His-Phe-Gly-Gly-Arg-Met-Asp-Arg-Ile-Ser-Cys)-Tyr-Arg-NH2 (peptide)
# peptide: H-MCHFGGRMDRISCYR-NH2
# modifications: disulfide 2-13
# SMILES: CC[C@H](C)[C@@H]1NC(=O)[C@H](CCCNC(=N)N)NC(=O)[C@H](CC(=O)O)NC(=O)[C@H](CCSC)NC(=O)[C@H](CCCNC(=N)N)NC(=O)CNC(=O)CNC(=O)[C@H](Cc2ccccc2)NC(=O)[C@H](Cc2c[nH]cn2)NC(=O)[C@@H](NC(=O)[C@@H](N)CCSC)CSSC[C@@H](C(=O)N[C@@H](Cc2ccc(O)cc2)C(=O)N[C@@H](CCCNC(=N)N)C(N)=O)NC(=O)[C@H](CO)NC1=O
# notes: also called 15-mer disulfide cyclic peptide
# Assays:
# [1] = biological target: T1, human natriuretic peptide receptor A …; assay: competitive inhibition of [125I]-ANP binding to HEK-hNPRA membrane homogenates
# Procedure: Competitive binding assay. A competitive inhibition binding assay was performed using crude membrane homogenates prepared from HEK-hNPRA cells. To prepare membrane homogenates, cells were rinsed with phosphate-buffered saline and incubated for 15 minutes at 4° C. in hypotonic lysis buffer (10 mM Tris, pH 7.4+5 mM EDTA). Cells were transferred from plates to polypropylene tubes and homogenized. Homogenates were centrifuged at 25,000×g for 20 minutes. Pellets were resuspended in buffer consisting of 50 mM Tris (pH 7.4) and 1 mM EDTA, homogenized and centrifuged at 25,000×g for 20 minutes. […] On the day of an assay, homogenates were thawed and homogenized. […] Assays were stopped by addition of cold wash buffer (phosphate-buffered saline) followed by filtration using a vacuum manifold. Bound radioactivity was determined using a gamma counter. […] Data were analyzed using GraphPad Prism® curve-fitting software.
# [2] = biological target: T1, human natriuretic peptide receptor A …; assay: cell-based or functional assay
binder,measurement,setting,value
B1,Ki,[1],0.6 nM
same,EC50 (accumulation of intracellular cGMP),[2],3.3 nM
